The values that follow come from US20040038894A1, “Compounds for modulating cell negative regulations and biological applications thereof” (INSTITUT NATIONAL DE LA SANTE ET DE LA RECHERCHE MEDICALE …, priority 1996, published 2004).

Where a SMILES comes first, the peptide text is derived from it. Where no end group is shown, it is not given here. [ ]: non-standard residue; d: D form. The star is where a group is joined. Biotin = O=C1N[C@H]2[C@H](CS[C@H]2CCCCC(=O)*)N1; pY = N[C@@H](Cc1ccc(OP(=O)(O)O)cc1)C(=O)O

Experiment [1] has as its target phosphorylated p58.2.1 peptide (N-terminal KIR ITIM) (human). Put plainly: SPR (BIAcore), phosphopeptide on streptavidin chip, GST fusion injected. For orientation: In SPR one partner is held on a chip, and binding of the other changes the refractive index at the surface.
The target in experiment [2] is phosphorylated p58.2.2 peptide (C-terminal KIR ITIM) (human). Described as above.
Chain of phosphorylated p58.2.2 peptide (C-terminal KIR ITIM) (human) (peptide, as listed by the source): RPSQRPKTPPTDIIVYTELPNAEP
Experiment [3] addresses human p58.2 KIR (CD158b), HLA-Cw3-specific killer-cell inhibitory receptor (human) (UniProt P43628). Put plainly: cell-based or functional assay.
Another experiment addresses T1, GST-SHP-1.SH2(N + C) (Mus musculus, UniProt P29351).
T1 construct: Using recombinant soluble tandem SH2 domains of SHP-1 and SHP-2; made in house; host or cells: E. coli DH5α
T1 sequence (P29351 1-213 limits assumed): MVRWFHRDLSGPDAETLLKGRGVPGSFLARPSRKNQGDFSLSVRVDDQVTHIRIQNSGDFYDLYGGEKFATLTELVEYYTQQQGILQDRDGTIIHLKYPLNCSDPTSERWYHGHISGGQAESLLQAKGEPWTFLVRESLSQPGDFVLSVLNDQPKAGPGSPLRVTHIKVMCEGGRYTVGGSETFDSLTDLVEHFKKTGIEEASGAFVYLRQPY
Put plainly: Surface plasmon resonance (BIAcore), SHP-1 tandem SH2 domains. Particulars: for koff / kon: 25 RU phosphorylated peptide immobilized, 5 μl/min. It is filed as binding, murine. The protocol: (§1) Surface plasmon resonance measurements were performed on a BIAcore apparatus (BIAcore). The GST-SHP1.SH2(NC), GST-SHP2.SH2(NC) and GST-SHIP.SH2 fusion proteins generated from the murine phosphatase cDNAs, were purified from DH5α lysates as previously described. Before their use in BIAcore experiments, fusion proteins were dialyzed in HBS buffer pH 7.4 (10 mM HEPES, 150 mM NaCl, 3.4 mM EDTA). Protein purity was assessed by 12.5% SDS-PAGE, and Coomassie blue staining. The running buffer used in all BIAcore experiments consisted of HBS buffer supplemented with 0.05% surfactant P20. Equilibrium constant determination (koff and kon) was performed using BIAevaluation 2.0 software. The equilibrium dissociation constants KD were calculated from the koff/kon ratio.
(§2) Results are illustrated by FIG. 16 showing the BIAcore analysis of NKG2A ITIM interaction with the SH2 domains of SHP-1, SHP-2 and SHIP phosphatases. In FIG. 16, the binding of 100 nM soluble recombinant GST-SHP-1.SH2(N+C), GST-SHP-2.SH2(N+C) or GST-SHIP.SH2 to immobilized NKG2A/B phosphorylated ITIM peptides (25 RU) was monitored by real-time analysis using surface plasmon resonance. Results are expressed as corrected resonance units (CRU) corresponding to the raw RU values after subtraction of background RU value due to the injection medium.
(§3) The measurement of phosphorylated peptide binding to GST-SHP-1.SH2(N+C) and GST-SHP-2.SH2(N+C) fusion proteins was performed at a constant 5 μl/min flow rate. In this representative experiment, 25 RU of phosphorylated NKG2A N-term and NKG2A C-term peptides were immobilized on streptavidin microchips. The regeneration was performed using HBS buffer supplemented with 0.03% SDS. Results are expressed as corrected resonance units (CRU) corresponding to the raw RU values after subtraction of background RU value due to the injection medium, koff and kon were calculated from three independent measurements using the BIAevaluation 2.0 software. In addition, kon was calculated as the slope of the curve kg=kon×c−koff, where koff is the off-rate constant and c is the concentration of the soluble recombinant GST fusion proteins. By plotting kg as a function of c, a linear regression fit was obtained (r^2>0.98) for the binding of NKG2A ITIM N- and C-term to SHP-1 and SHP-2 tandem SH2 domains. This linear representation allows to check on the validity of the single step interaction and to confirm the determination of the kon constant using non-linear analysis (BIAevaluation software).

A further experiment addresses T2, GST-SHP-2.SH2(N + C) (Mus musculus, UniProt P35235).
T2 construct: Using recombinant soluble tandem SH2 domains of SHP-1 and SHP-2; made in house; host or cells: E. coli DH5α
T2 sequence (P35235 1-216 limits assumed): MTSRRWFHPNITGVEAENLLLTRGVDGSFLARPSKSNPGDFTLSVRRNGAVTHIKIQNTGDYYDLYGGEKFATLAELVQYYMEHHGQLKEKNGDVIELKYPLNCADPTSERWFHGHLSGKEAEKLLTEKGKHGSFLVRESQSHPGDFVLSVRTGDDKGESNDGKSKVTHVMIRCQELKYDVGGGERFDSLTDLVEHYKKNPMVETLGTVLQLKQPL
Put plainly: Surface plasmon resonance (BIAcore), SHP-2 tandem SH2 domains. The class given is binding, murine. Particulars: for koff / kon: 25 RU phosphorylated peptide immobilized, 5 μl/min. The protocol: as §1, §2, §3

Experiment [4] deals with T3, SHIP polyinositol phosphatase from RBL-2H3 cell lysates (rat (cell line RBL-2H3), UniProt P97573 1-1190, limits assumed).
T3 construct: Detected by immunoblot with anti-SHIP antiserum
T3 sequence (looked up): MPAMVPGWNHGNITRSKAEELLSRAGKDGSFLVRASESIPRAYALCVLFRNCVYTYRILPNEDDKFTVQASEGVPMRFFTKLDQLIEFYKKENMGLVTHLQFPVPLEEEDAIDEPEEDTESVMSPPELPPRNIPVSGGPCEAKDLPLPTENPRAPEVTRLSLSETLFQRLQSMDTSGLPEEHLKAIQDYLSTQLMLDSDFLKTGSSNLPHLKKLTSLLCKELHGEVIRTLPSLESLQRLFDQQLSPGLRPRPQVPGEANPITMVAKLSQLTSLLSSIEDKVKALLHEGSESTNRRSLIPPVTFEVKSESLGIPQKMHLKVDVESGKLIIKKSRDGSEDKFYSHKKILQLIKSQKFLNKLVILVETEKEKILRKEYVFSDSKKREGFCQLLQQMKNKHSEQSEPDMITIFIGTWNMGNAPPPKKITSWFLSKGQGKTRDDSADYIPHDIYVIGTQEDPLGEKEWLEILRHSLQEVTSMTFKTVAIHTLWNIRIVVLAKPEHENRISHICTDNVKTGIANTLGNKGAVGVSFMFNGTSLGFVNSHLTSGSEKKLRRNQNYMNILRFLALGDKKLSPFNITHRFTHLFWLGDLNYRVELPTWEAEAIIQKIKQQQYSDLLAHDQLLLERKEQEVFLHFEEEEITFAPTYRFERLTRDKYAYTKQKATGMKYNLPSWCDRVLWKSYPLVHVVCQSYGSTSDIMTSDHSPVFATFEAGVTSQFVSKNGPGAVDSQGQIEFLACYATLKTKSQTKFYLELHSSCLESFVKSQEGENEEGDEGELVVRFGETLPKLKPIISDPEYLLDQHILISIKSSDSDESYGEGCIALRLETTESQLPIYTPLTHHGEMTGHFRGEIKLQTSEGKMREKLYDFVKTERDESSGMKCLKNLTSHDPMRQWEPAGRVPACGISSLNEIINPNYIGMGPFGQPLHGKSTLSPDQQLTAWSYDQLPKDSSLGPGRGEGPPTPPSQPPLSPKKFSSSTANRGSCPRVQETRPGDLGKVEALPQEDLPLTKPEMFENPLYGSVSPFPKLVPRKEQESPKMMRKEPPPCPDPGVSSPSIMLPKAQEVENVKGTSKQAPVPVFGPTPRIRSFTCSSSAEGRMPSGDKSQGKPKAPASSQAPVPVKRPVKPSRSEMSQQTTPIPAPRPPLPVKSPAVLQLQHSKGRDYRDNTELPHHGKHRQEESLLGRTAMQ
Put plainly: cell lysate adsorption to peptide beads, immunoblot (RBL-2H3), FIG. 15A. The protocol:
In an attempt to characterize the function of these putative ITIMs, cell lysates were incubated with phosphorylated and nonphosphorylated synthetic peptides corresponding to the N-terminal and the C-terminal I/VxYxxL stretches present in NKG2A intracytoplasmic domain. Cell lysates absorbed to peptides were then assayed by immunoblotting for the presence of the phosphatases known to interact with phosphorylated ITIMs, i.e. the protein tyrosine phosphatases SHP-1 and SHP-2, as well as the polyinositol phosphate phosphatase, SHIP. In parallel, lysates adsorption were performed using control peptides corresponding to ITIMs present in Ig-like ITIM bearing receptors such as human KIRs (p58.2/CD158b, a receptor for HLA-Cw3) and mouse FcγRIIB, as well as in mouse lectin-like ITIM-bearing receptor, such as Ly-49A.
As shown in FIG. 15A (lanes 1 and 2), both N- and C-terminal I/VxYxxL stretches present in NKG2A associate with SHP-1 and SHP-2 in vitro, but no binding to SHIP was detected. Similar patterns of association were obtained using the phosphorylated ITIM peptides of […] and p58.2 KIR (FIG. 15A, lanes 3 to 5). In contrast, FcγRIIB phosphorylated ITIM peptides also associate with SHIP (FIG. 15A, lane 6). No association of phosphatases with nonphosphorylated peptides corresponding to FcγRIIB (FIG. 15A, lane 7) and NKG2A N- and C-terminal I/VxYxxL stretches was detected. When nonphosphorylated and phosphorylated peptides were used to adsorb lysates prepared from ³⁵S methionine/cysteine-labeled cells, only two bands around 64 and 68 kDa selectively associate with both phosphorylated NKG2A N- and C-terminal I/VxYxxL stretches, as compared to nonphosphorylated ones (FIG. 15B). The 64 and 68 kDa proteins which bind to phosphorylated NKG2A peptides correspond to SHP-1 and SHP-2 apparent molecular weight respectively, supporting the immunoblotting results. Therefore, our results define the two NKG2A I/VxYxxL stretches as ITIMs which appear to function similarly to other ITIMs present in inhibitory receptors for MHC class I molecules, i.e. KIRs and Ly-49 molecules. Using recombinant soluble tandem SH2 domains of SHP-1 and SHP-2, we confirmed by surface plasmon resonance that both NKG2A ITIM phosphopeptides directly associate with the SH2 domains of SHP-1 and SHP-2, but not with the SH2 domain of SHIP (FIG. 16).
In general terms: A western blot detects proteins with antibodies after separation by electrophoresis.

Where [5] appears, read: calculated from the koff/kon ratio.

Chain of human p58.2 KIR (CD158b), HLA-Cw3-specific killer-cell inhibitory receptor (human) (P43628 22-341): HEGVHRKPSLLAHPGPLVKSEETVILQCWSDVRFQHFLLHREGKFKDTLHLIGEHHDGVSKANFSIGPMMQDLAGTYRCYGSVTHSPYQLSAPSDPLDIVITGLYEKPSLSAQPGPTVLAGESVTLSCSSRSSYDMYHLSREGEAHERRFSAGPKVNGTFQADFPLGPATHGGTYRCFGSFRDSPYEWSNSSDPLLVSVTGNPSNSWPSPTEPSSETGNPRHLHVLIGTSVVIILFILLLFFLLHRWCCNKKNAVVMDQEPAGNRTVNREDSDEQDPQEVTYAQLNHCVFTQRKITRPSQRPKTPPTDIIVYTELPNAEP

Usually Kd stands for the free concentration of one partner at which half of the binding sites on the other are occupied at equilibrium, for simple one-to-one binding. For orientation: koff means the rate constant with which the complex falls apart. One may read the kon as the second-order rate constant of association. In experiment [1], “GST-SHP-1.SH2(C) fusion protein (from UniProt P29351 107-217)” had a Kd of 137 nM, an off-rate (koff) of 0.0007 s⁻¹ and a kon of 5000 M⁻¹ s⁻¹. Further, in experiment [2], the Kd was determined as 545 nM, the off-rate (koff) worked out at 0.0003 s⁻¹ and the association rate constant (kon) came to 600 M⁻¹ s⁻¹.
Turning to GL183 F(ab')2, in experiment [3], the inhibition of CD25/CD3 zeta-induced serotonin release, RTIIBp58 B clone (GL183 1 µg/ml, anti-hCD25 3 µg/ml) was determined as 39.3%; the inhibition of CD25/CD3 zeta-induced serotonin release, clone with unusually high CD25/CD3 zeta (GL183 F(ab')2 1 µg/ml) turned out to be 14.1%; the inhibition of FcεRI-induced serotonin release, first RTIIBp58 clone (GL183 1 µg/ml, IgE 10^-3 dilution, GAM) turned out to be 72.8%; the inhibition of FcεRI-induced serotonin release, second RTIIBp58 clone (GL183 1 µg/ml, IgE 10^-3 dilution, GAM) was found to be 55.8%.
With `CC[C@H](C)[C@H](NC(=O)CCCC[C@@H]1SC[C@@H]2NC(=O)N[C@@H]21)C(=O)N[C@@H](CC(C)C)C(=O)N[C@@H](C)C(=O)N[C@H](C(=O)N[C@@H](CCC(=O)O)C(=O)N[C@@H](CCC(N)=O)C(=O)N[C@@H](CCC(=O)O)C(=O)N[C@H](C(=O)N[C@H](C(=O)N[C@@H](Cc1ccc(OP(=O)(O)O)cc1)C(=O)N[C@@H](C)C(=O)N[C@@H](CCC(=O)O)C(=O)N[C@@H](CC(C)C)C(=O)N[C@@H](CC(N)=O)C(=O)N[C@@H](CC(C)C)C(=O)O)[C@@H](C)O)[C@@H](C)CC)[C@@H](C)O` [NKG2-A C-terminal ITIM, ILATEQEIT40 AELNL] (HELM PEPTIDE1{[O=C1N[C@H]2[C@H](CS[C@H]2CCCCC(=O)[*:2])N1].I.L.A.T.E.Q.E.I.T.[O=C([C@H](Cc1ccc(OP(=O)(O)O)cc1)N[*:1])[*:2]].A.E.L.N.L}$$$$V2.0; N-terminus and C-terminus assumed), on GST-SHP-1.SH2(N + C), the koff was 0.00117 s⁻¹ and the on-rate constant (kon) turned out to be 410000 M⁻¹ s⁻¹. On GST-SHP-2.SH2(N + C), the koff worked out at 0.00132 s⁻¹ and the kon turned out to be 840000 M⁻¹ s⁻¹.
In experiment [1], “GST-SHP-1.SH2(N) fusion protein (from UniProt P29351 1-106)” returned a Kd of 423 nM, an off-rate constant (koff) of 0.042 s⁻¹ and a kon of 100000 M⁻¹ s⁻¹. Besides, in experiment [2], the dissociation constant (Kd) came out at 3160 nM, the off-rate (koff) was found to be 0.025 s⁻¹ and the kon was determined as 8000 M⁻¹ s⁻¹.
For `CC[C@H](C)[C@H](NC(=O)[C@@H](NC(=O)CNC(=O)[C@H](CCC(N)=O)NC(=O)[C@H](CC(N)=O)NC(=O)[C@H](CC(=O)O)NC(=O)[C@H](CCSC)NC(=O)CCCC[C@@H]1SC[C@@H]2NC(=O)N[C@@H]21)C(C)C)C(=O)N[C@@H](Cc1ccc(OP(=O)(O)O)cc1)C(=O)N[C@@H](CO)C(=O)N[C@@H](CC(=O)O)C(=O)N[C@@H](CC(C)C)C(=O)N[C@@H](CC(N)=O)C(=O)N[C@@H](CC(C)C)C(=O)O` [NKG2-A N-terminal ITIM, MDNQGVIY8 SDLNL] (HELM PEPTIDE1{[O=C1N[C@H]2[C@H](CS[C@H]2CCCCC(=O)[*:2])N1].M.D.N.Q.G.V.I.[O=C([C@H](Cc1ccc(OP(=O)(O)O)cc1)N[*:1])[*:2]].S.D.L.N.L}$$$$V2.0), the koff at GST-SHP-1.SH2(N + C) came to 0.00189 s⁻¹; on GST-SHP-2.SH2(N + C), 0.00142 s⁻¹. Besides, the kon at GST-SHP-1.SH2(N + C) worked out at 390000 M⁻¹ s⁻¹; on GST-SHP-2.SH2(N + C), 1.03e+06 M⁻¹ s⁻¹. For the same molecule, the Kd was 4.8 nM on GST-SHP-1.SH2(N + C) (setting [5]) and 1.38 nM on GST-SHP-2.SH2(N + C) (setting [5]).
With Biotin-MSEQEVT[pY]SMVRF (also called Ly-19A) [phosphorylated Ly-49A ITIM peptide], in experiment [4], the binding result is “no binding”.
